# In article PMC4501562, “Vpu Exploits the Cross-Talk between BST2 and the ILT7 Receptor to Suppress Anti-HIV-1 Responses by Plasmacytoid Dendritic Cells” (PLoS Pathogens, 2015):
# Experiments:
# [1] = target: ILT7 on the ILT7+ NFAT-GFP reporter mouse cell line (CT550) (human) (UniProt P59901)
# [2] = target: T1, baculovirus-expressed soluble ILT7 (residues 24 to 435) (human, UniProt P59901 24-435); assay: SPR; Biacore 3000; GST-BST2 covalently immobilised on a CM5 chip by amine coupling (6550 RU); bacILT7 serially diluted and passed over at 10 ul/min; running buffer HBS-PE (10 mM HEPES pH 7.5, 150 mM NaCl, 3 mM EDTA, 0.005% Tween-20); GST-coated reference cell subtracted; 1:1 Langmuir model, local Rmax; conditions: both partners purified
# T1 construct: immunoglobulin-like transcript 7 (ILT7, LILRA4, CD85g), human, residues 24 to 435, from a synthetic codon-optimized gene; Cloned into the transfer vector pFL and transposed into the EMBacY bacmid; also called bacILT7; LILRA4
# T1 sequence (P59901 24-435): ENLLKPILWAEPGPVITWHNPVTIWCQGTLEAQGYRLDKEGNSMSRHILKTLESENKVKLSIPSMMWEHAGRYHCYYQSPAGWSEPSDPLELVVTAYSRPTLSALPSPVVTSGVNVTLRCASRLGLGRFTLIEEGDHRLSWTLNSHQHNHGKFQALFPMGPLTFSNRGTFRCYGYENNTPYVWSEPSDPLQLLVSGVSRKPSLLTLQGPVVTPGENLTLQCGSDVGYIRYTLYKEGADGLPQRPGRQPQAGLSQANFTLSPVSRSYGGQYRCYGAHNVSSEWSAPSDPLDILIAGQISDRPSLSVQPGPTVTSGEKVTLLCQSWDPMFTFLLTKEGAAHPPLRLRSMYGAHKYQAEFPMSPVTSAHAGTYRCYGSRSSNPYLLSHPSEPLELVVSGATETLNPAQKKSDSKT
# Sequence of WT BST2 expressed on HEK293T cells (Q10589 1-161): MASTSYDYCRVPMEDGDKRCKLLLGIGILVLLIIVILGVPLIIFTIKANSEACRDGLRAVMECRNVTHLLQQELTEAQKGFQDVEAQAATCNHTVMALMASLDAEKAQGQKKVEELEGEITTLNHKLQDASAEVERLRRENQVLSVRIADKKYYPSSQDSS
# Sequence of ILT7 on the ILT7+ NFAT-GFP reporter mouse cell line (CT550) (human) (P59901 24-499): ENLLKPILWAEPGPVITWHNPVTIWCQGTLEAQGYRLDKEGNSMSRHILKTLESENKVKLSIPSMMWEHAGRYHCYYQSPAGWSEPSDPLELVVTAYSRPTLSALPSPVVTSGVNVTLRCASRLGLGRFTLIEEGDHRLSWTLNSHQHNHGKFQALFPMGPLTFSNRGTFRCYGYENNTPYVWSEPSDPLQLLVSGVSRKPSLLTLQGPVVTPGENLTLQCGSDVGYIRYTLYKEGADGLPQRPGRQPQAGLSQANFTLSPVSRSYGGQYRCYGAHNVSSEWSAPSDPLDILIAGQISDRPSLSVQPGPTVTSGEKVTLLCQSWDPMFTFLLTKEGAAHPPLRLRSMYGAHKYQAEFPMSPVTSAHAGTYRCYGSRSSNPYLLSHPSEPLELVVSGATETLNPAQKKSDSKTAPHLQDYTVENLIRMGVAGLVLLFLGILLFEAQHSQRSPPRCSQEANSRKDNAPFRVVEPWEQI
Molecule,percentage of NFAT-GFP positive ILT7+ reporter cells after co-culture with BST2-expressing HEK293T cells (no HIV) [1] [%],percentage of NFAT-GFP positive ILT7+ reporter cells after co-culture with BST2-expressing HEK293T cells producing WT HIV (Vpu present) [1] [%],percentage of NFAT-GFP positive ILT7+ reporter cells after co-culture with BST2-expressing HEK293T cells producing dU HIV (no Vpu) [1] [%],Kd [2] [µM],koff [2] [s⁻¹],kon [2] [M⁻¹ s⁻¹]
WT BST2 expressed on HEK293T cells (from UniProt Q10589 1-161) (natural protein),99,74,48,–,–,–
"recombinant GST-tagged ectodomain of BST2 (residues 47 to 159) (domain or fragment, BST2/Tetherin (CD317), human, extracellular domain, residues 47 to 159; a region common to the short and the long BST2 isoforms; Cloned into the pBADM30 expression vector as a His-tagged GST-N-terminus fusion protein; also called GST-BST2; BST2/Tetherin; not shown: GST, N-terminal, kept) KANSEACRDGLRAVMECRNVTHLLQQELTEAQKGFQDVEAQAATCNHTVMALMASLDAEKAQGQKKVEELEGEITTLNHKLQDASAEVERLRRENQVLSVRIADKKYYPSSQD",–,–,–,2.33,0.00308,1250
